The target in experiment [1] is T1, human TPBG (trophoblast glycoprotein), full length, cell surface expressed (human, UniProt Q13641 32-420).
T1 construct: On MCF7, H1975 and BxPC-3 tumour cells, on SW620 clone 4 and on CHO-K1 cells transfected with full length human TPBG; also called huTPBG; 5T4
T1 sequence: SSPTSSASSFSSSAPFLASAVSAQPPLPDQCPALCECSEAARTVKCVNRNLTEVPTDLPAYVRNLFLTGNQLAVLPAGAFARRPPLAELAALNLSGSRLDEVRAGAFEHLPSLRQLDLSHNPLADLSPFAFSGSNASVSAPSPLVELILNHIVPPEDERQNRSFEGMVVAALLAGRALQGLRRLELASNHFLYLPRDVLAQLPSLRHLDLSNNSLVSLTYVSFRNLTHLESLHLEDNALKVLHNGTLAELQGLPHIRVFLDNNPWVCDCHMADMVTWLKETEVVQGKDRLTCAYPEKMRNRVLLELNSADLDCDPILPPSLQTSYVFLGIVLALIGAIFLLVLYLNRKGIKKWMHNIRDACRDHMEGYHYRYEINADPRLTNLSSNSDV
As to the kind of experiment: flow cytometry on SW620 clone 4 cells; ratio of MFI; replicate 2. Background: In flow cytometry, cells or beads pass a laser one at a time.

The target in experiment [2] is T2, cynomolgus TPBG extracellular domain, His6Avi, biotinylated (cynomolgus, biotinylated).
T2 construct: also called cyTPBG; cyno TPBG-AviHis
T2 chain: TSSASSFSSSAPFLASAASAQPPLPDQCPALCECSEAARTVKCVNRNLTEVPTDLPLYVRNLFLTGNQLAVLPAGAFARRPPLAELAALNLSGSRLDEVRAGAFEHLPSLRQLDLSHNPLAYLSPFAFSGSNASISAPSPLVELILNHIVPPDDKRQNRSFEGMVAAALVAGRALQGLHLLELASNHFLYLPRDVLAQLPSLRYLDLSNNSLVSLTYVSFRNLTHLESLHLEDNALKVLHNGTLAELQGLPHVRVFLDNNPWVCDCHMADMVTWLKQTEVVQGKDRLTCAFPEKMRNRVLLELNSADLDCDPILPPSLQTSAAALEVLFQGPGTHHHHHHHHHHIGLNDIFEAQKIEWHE
As to the kind of experiment: ELISA; biotinylated TPBG-AviHis on streptavidin plate; Fab titrated from 2 µg/ml.

Experiment [3] addresses T3, human TPBG extracellular domain, His6Avi, biotinylated (human, biotinylated).
T3 construct: also called huTPBG; human TPBG-AviHis
T3 chain: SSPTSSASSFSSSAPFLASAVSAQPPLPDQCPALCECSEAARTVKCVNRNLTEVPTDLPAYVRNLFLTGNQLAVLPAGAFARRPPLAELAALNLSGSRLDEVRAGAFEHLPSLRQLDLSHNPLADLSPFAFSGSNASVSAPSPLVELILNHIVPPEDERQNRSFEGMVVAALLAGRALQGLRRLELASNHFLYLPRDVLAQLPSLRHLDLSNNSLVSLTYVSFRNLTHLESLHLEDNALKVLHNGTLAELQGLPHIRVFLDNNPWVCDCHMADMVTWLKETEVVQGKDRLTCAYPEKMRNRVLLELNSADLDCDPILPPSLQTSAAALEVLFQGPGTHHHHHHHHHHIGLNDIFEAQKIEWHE
The experiment is described as above.

B1: anti-TPBG antibody 091, Fab fragment (Fab, V domains shown)
VH: EVHLLESGGGLVHPGGSLRLSCAASGFTFRSDAMHWVRQAPGKGLEWVSGVSGSGGSPYYADSVKGRFTISRDDSKTTLYLQMNSLRAEDTAVYYCATGGSIAGSYYYYPMDVWGQGTTVTVSS
VL: DIQMTQSPSSLSASVGDRVTITCQASQDISNYLNWYQQKPGKAPKLLIYAASTLQIGVPSRFSGSGSGTDFTFTISSLQPEDFATYYCQQANSFPLTFGGGTKVEIK
notes: also called Fab2
Turning to B1, in experiment [1], the “Fold change pH 7.2 vs pH 5.5” value was 1 fold. Besides, the concentration giving a half-maximal response (EC50) in experiment [2] is 1.23 µg/mL; in experiment [3], 0.0277 µg/mL.

The EC50 is the concentration needed to bring the measured effect to its halfway point. The low end stands for greater potency, the high end for weaker potency.

Source of the values: patent US20180311371A1 (Hoffmann-La Roche, published 2018).
